Laboratory results reported in patent publication US20200392227A1 (LYVGEN BIOPHARMA, published 2020).
Like-named read-outs stand apart in the source and are kept apart here. Blank lines part the entries; values can stand above or below the binder they belong to.

Assays:
[1] = biological target: T1, human FcRIIIB protein (MednaBio, E1037) (human, UniProt O75015 17-200); experiment: BLI
T1 construct: Bought; also called FcγRIIIB; FcgRIIIB
In short: (§1)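 Binding was measured by biolayer interferometry on an Octet Red96 System, with commercial human Fc receptor proteins loaded at 20 μg/mL onto anti-penta-HIS biosensors. Sensors were dipped into an 8-point 1:3 dilution series of test IgG starting at 300 nM in PBS with 0.1% BSA and 0.02% Tween-20. Fcγ receptor assays ran at pH 7.2 and FcRn assays at pH 6. Kd, kon and koff came from global fitting to a 1:1 binding model.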

[2] = biological target: T2, human FcRIIIA-V158 protein (MednaBio, E1035) (human, UniProt P08637 17-208); experiment: BLI
T2 construct: Bought; also called FcγRIIIA(V); FcgRIIIA(V)
In short: as §1

[3] = biological target: T3, human FcRIIB/C protein (MednaBio, E1034) (human, UniProt P31994 43-217, limits assumed); experiment: BLI
T3 construct: Bought as FcRIIB/C; also called FcγRIIB; CD32B
T3 sequence (looked up): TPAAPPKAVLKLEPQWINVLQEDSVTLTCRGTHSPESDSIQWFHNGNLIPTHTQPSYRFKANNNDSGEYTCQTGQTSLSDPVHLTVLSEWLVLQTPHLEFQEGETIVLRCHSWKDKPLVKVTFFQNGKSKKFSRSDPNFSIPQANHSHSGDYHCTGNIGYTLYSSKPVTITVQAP
In short: as §1

[4] = biological target: T4, human FcRIIIA-F158 protein (MednaBio, E1036) (human, UniProt P08637 17-208); experiment: BLI
T4 construct: Bought; also called FcγRIIIA(F)
In short: as §1

[5] = biological target: T5, human FcRn protein (MednaBio, E1032) (human, UniProt P55899 24-297; P61769 21-119); experiment: BLI
T5 construct: Bought; assays at pH 6
In short: as §1

[6] = biological target: T6, human FcRIIA protein (MednaBio, E1033) (human, UniProt P12318 34-218, limits assumed); experiment: BLI
T6 construct: Bought; also called FcγRIIA
T6 sequence (looked up): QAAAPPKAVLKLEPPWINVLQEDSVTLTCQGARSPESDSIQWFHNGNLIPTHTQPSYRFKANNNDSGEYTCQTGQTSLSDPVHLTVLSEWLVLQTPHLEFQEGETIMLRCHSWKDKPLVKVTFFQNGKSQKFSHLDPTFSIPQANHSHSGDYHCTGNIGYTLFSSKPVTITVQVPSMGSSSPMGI
In short: as §1

[7] = biological target: T7, human FcRI protein (MednaBio, E1031) (human, UniProt P12314 16-288, limits assumed); experiment: BLI
T7 construct: Bought; loaded on anti-penta-HIS biosensors; also called FcγRI
In short: as §1

[8] = biological target: T8, human FcγRIIA(R131) expressed on CHO cells (human, UniProt P12318 34-317); experiment: FACS, CHO cells expressing FcγRIIA(R131)
T8 construct: whole, on cells
T8 sequence (looked up): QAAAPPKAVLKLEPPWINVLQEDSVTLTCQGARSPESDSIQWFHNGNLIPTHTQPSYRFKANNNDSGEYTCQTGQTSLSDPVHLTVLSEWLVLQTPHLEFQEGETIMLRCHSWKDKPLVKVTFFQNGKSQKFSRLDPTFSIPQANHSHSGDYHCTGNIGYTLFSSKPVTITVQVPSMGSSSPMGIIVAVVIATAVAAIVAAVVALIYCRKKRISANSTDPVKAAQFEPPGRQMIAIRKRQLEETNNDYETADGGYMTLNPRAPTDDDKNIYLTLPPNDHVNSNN
Method: For FACS analysis of the IgG mutants' binding to different FcγRs, FcγR overexpressing CHO cells were harvested using trypsin-EDTA and were suspended in cold staining buffer (3% BSA in PBS). Test IgG mutants, which were diluted in staining buffer, were added into the cells. The mixture was incubated 4° C. for 2 hours, and then washed twice with cold staining buffer and re-suspended in PE-labeled anti-human IgG followed by incubation at 4° C. for 2 hours. The mixture was washed twice with staining buffer and re-suspended in 2% PFA in PBS for FACS.

[9] = biological target: T1, human FcRIIIB protein (MednaBio, E1037); experiment: BLI; remark: listed apart in the source
In short: as §1

[10] = biological target: T2, human FcRIIIA-V158 protein (MednaBio, …); experiment: BLI; remark: listed apart in the source
In short: as §1

[11] = biological target: T3, human FcRIIB/C protein (MednaBio, E1034); experiment: BLI; remark: listed apart in the source
In short: as §1

[12] = biological target: T4, human FcRIIIA-F158 protein (MednaBio, …); experiment: BLI; remark: listed apart in the source
In short: as §1

[13] = biological target: T5, human FcRn protein (MednaBio, E1032); experiment: BLI; remark: listed apart in the source
In short: as §1

[14] = biological target: T6, human FcRIIA protein (MednaBio, E1033); experiment: BLI; remark: listed apart in the source
In short: as §1

[15] = biological target: T7, human FcRI protein (MednaBio, E1031); experiment: BLI; remark: listed apart in the source
In short: as §1

[16] = biological target: T1, human FcRIIIB protein (MednaBio, E1037); experiment: BLI; remark: listed apart in the source
Method: (§2) These IgG mutants were tested for binding to a panel of human Fc receptors (FcRs), including FcRn, using the Octet Red96 System (ForteBio, Model #Red96). Human FcR proteins were purchased commercially (FcRn, MednaBio, E1032; FcRI, MednaBio, E1031; FcRIIA, MednaBio, E1033; FcRIIB/C, MednaBio, E1034; FcRIIIA-F158, MednaBio, E1036; FcRIIIA-V158, MednaBio, E1035; FcRIIIB, MednaBio, E1037). All Fey receptor assays were performed at pH 7.2; all FcRn assays were performed at pH 6. The Fey receptors were loaded onto anti-penta-HIS1K (ForteBio, Cat #18-5122) biosensors at a concentration of 20 μg/mL. The loaded biosensors was then be dipped into an 8-point 1:3 dilution series of the test IgG molecules (including controls and the mutants described herein) in PBS with 0.1% BSA, 0.02% Tween-20 (pH 7.2) at a starting concentration of 300 nM. Kinetic analysis was performed using a 1:1 binding model and global fitting.

[17] = biological target: T2, human FcRIIIA-V158 protein (MednaBio, …); experiment: BLI; remark: listed apart in the source
Method: as §2

[18] = biological target: T3, human FcRIIB/C protein (MednaBio, E1034); experiment: BLI; remark: listed apart in the source
Method: as §2

[19] = biological target: T4, human FcRIIIA-F158 protein (MednaBio, …); experiment: BLI; remark: listed apart in the source
Method: as §2

[20] = biological target: T5, human FcRn protein (MednaBio, E1032); experiment: BLI; remark: listed apart in the source
Method: as §2

[21] = biological target: T6, human FcRIIA protein (MednaBio, E1033); experiment: BLI; remark: listed apart in the source
Method: as §2

[22] = biological target: T7, human FcRI protein (MednaBio, E1031); experiment: BLI; remark: listed apart in the source
Method: as §2

[23] = biological target: T9, human FcγRIIC expressed on CHO cells (human, UniProt P31995 43-323); experiment: FACS, CHO cells expressing FcγRIIC
T9 construct: whole, on cells
T9 sequence (looked up): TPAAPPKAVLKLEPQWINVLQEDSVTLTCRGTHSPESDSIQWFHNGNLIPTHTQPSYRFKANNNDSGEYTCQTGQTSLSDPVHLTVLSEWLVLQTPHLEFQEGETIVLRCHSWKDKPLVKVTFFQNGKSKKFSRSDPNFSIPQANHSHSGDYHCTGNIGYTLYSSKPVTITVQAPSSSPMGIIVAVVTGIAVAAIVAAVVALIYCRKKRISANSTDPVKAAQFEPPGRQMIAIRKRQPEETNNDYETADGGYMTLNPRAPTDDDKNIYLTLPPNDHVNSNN

T2 sequence (P08637 17-208 F176V): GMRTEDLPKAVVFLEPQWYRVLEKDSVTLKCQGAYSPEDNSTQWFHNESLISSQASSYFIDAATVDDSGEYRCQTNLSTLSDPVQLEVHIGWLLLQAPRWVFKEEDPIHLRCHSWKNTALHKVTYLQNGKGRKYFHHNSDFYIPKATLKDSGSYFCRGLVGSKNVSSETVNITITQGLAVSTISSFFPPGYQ
T4 sequence (P08637 17-208 limits assumed): as the sequence (P08637 17-208 F176V) above, with V160F counted along it
T1 sequence (O75015 17-200 limits assumed): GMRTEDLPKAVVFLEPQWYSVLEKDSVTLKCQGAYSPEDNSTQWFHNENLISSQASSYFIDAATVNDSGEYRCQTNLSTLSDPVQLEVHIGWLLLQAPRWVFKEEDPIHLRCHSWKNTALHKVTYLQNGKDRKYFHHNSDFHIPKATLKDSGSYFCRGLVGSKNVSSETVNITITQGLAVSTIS
T7 sequence (P12314 16-288 limits assumed): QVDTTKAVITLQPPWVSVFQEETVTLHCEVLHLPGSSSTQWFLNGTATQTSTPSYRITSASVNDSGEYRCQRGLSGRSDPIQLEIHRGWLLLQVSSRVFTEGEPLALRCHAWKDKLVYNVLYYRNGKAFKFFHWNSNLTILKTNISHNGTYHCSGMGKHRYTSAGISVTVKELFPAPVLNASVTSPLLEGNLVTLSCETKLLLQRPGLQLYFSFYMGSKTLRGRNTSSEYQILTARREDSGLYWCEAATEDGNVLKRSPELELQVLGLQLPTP

binding result [1]: no binding (tested: 300 nM) | binding result [2]: no binding (tested: 300 nM) | Kd [3]: 310 nM | koff [3]: 0.12 s⁻¹ | kon [3]: 390000 M⁻¹ s⁻¹ | binding result [4]: no binding (tested: 300 nM) | Kd [5]: 14 nM | koff [5]: 0.011 s⁻¹ | kon [5]: 800000 M⁻¹ s⁻¹ | Kd [6]: 230 nM | koff [6]: 0.14 s⁻¹ | kon [6]: 600000 M⁻¹ s⁻¹ | binding result [7]: no binding (tested: 300 nM) | binding result [8]: no binding (tested: 10 ug/ml)
B1: anti-CD137 IgG2 with Fc variant G2m5 (antibody)
heavy: EVQLVQSGAEVKKPGESLRISCKGSGYSFSTYWISWVRQMPGKGLEWMGKIYPGDSYTNYSPSFQGQVTISADKSISTAYLQWSSLKASDTAMYYCARGYGIFDYWGQGTLVTVSSASTKGPSVFPLAPCSRSTSESTAALGCLVKDYFPEPVTVSWNSGALTSGVHTFPAVLQSSGLYSLSSVVTVPSSNFGTQTYTCNVDHKPSNTKVDKTVERKCCVECPPCPAPPVAGPSVFLFPPKPKDTLMISRTPEVTCVVVDVSHEDPEEQFNWYVDGVEVHNAKTKPREEQFNSTFRVVSVLTVVHQDWLNGKEYKCKVSNKGLPAPIEKTISKTKGQPREPQVYTLPPSREEMTKNQVSLTCLVKGFYPSDIAVEWESNGQPENNYKTTPPMLDSDGSFFLYSKLTVDKSRWQQGNVFSCSVMHEALHNHYTQKSLSLSPGK
light: SYELTQPPSVSVSPGQTASITCSGDNIGDQYAHWYQQKPGQSPVLVIYQDKNRPSGIPERFSGSNSGNTATLTISGTQAMDEADYYCATYTGFGSLAVFGGGTKLTVLGQPKAAPSVTLFPPSSEELQANKATLVCLISDFYPGAVTVAWKADSSPVKAGVETTTPSKQSNNKYAASSYLSLTPEQWKSHRSYSCQVTHEGSTVEKTVAPTECS
notes: copies: 2 + 2

Kd [9]: 117 nM | koff [9]: 0.204 s⁻¹ | kon [9]: 1.74e+06 M⁻¹ s⁻¹ | Kd [10]: 153 nM | koff [10]: 0.205 s⁻¹ | kon [10]: 1.34e+06 M⁻¹ s⁻¹ | Kd [11]: 236 nM | koff [11]: 0.0848 s⁻¹ | kon [11]: 361000 M⁻¹ s⁻¹ | Kd [12]: 168 nM | koff [12]: 0.262 s⁻¹ | kon [12]: 1.56e+06 M⁻¹ s⁻¹ | Kd [13]: 7.46 nM | koff [13]: 0.0139 s⁻¹ | kon [13]: 1.87e+06 M⁻¹ s⁻¹ | Kd [14]: 422 nM | koff [14]: 0.274 s⁻¹ | kon [14]: 648000 M⁻¹ s⁻¹ | Kd [15]: 253 nM | koff [15]: 0.277 s⁻¹ | kon [15]: 1.09e+06 M⁻¹ s⁻¹
B2: anti-CD137 IgG2 with Fc variant G2m17 (antibody)
heavy: EVQLVQSGAEVKKPGESLRISCKGSGYSFSTYWISWVRQMPGKGLEWMGKIYPGDSYTNYSPSFQGQVTISADKSISTAYLQWSSLKASDTAMYYCARGYGIFDYWGQGTLVTVSSASTKGPSVFPLAPCSRSTSESTAALGCLVKDYFPEPVTVSWNSGALTSGVHTFPAVLQSSGLYSLSSVVTVPSSNFGTQTYTCNVDHKPSNTKVDKTVERKCCVECPPCPAPPVASVFLFPPKPKDTLMISRTPEVTCVVVDVEHEDPEVQFNWYVDGVEVHNAKTKPREEQFNSTFRVVSVLTVVHQDWLNGKEYKCKVSNKGLPAPIEKTISKTKGQPREPQVYTLPPSREEMTKNQVSLTCLVKGFYPSDIAVEWESNGQPENNYKTTPPMLDSDGSFFLYSKLTVDKSRWQQGNVFSCSVMHEALHNHYTQKSLSLSPGK
light: B1 light
notes: copies: 2 + 2

binding result [16]: no binding (tested: 300 nM) | binding result [17]: no binding (tested: 300 nM) | binding result [18]: no binding (tested: 300 nM) | binding result [19]: no binding (tested: 300 nM) | Kd [20]: 11 nM | koff [20]: 0.0055 s⁻¹ | kon [20]: 510000 M⁻¹ s⁻¹ | Kd [21]: 83 nM | koff [21]: 0.037 s⁻¹ | kon [21]: 450000 M⁻¹ s⁻¹ | binding result [22]: no binding (tested: 300 nM) | binding result [23]: no binding (tested: 10 ug/ml)
B3: anti-CD137 IgG4 with Fc variant G4m10 (antibody)
heavy: EVQLVQSGAEVKKPGESLRISCKGSGYSFSTYWISWVRQMPGKGLEWMGKIYPGDSYTNYSPSFQGQVTISADKSISTAYLQWSSLKASDTAMYYCARGYGIFDYWGQGTLVTVSSASTKGPSVFPLAPCSRSTSESTAALGCLVKDYFPEPVTVSWNSGALTSGVHTFPAVLQSSGLYSLSSVVTVPSSSLGTKTYTCNVDHKPSNTKVDKRVESKYGPPCPPCPAPEVSSVFLFPPKPKDTLMISRTPEVTCVVVDVSQEDPEVQFNWYVDGVEVHNAKTKPREEQFNSTYRVVSVLTVLHQDWLNGKEYKCKVSNKGFPSSIEKTISKAKGQPREPQVYTLPPSQEEMTKNQVSLTCLVKGFYPSDIAVEWESNGQPENNYKTTPPVLDSDGSFFLYSRLTVDKSRWQEGNVFSCSVMHEALHNHYTQKSLSLSLGK
light: B1 light
notes: copies: 2 + 2
